Data taken from patent US20190185562A1 (Regeneron, published 2019).
One block for each binder: values may come before it.

Columns and labels:
[1] = target: T1, full length (FL) human gp130 over-expressed on HEK293/Stat3-luc/gp130-2X Sort cells (human, UniProt P40189 23-918); experiment: FACS, 10 nM mAb, 293/Stat3-luc/GP130 2X sort cells
T1 construct: whole, on cells
T1 sequence (looked up): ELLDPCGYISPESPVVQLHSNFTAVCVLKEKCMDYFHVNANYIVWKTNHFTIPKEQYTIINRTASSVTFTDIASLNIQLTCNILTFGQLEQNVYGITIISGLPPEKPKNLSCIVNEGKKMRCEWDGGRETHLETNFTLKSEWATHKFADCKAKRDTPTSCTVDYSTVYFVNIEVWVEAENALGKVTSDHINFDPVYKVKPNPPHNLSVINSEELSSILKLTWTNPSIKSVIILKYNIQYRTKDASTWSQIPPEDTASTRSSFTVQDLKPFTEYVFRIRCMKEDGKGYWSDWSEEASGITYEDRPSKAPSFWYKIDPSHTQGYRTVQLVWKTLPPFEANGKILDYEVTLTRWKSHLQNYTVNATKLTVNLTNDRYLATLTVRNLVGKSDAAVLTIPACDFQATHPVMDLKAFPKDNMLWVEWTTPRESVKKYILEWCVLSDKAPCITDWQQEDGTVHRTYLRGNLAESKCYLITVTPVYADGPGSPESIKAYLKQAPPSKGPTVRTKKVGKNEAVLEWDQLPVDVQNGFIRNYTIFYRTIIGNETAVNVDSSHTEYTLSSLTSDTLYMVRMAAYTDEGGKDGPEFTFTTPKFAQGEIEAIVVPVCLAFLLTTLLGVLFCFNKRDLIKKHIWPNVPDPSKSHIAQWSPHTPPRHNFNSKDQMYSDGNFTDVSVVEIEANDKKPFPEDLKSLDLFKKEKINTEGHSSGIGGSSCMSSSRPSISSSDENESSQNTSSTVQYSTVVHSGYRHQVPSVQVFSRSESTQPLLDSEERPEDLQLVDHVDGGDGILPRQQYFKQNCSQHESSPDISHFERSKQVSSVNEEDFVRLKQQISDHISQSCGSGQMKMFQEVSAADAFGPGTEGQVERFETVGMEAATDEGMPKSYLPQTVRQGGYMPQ
Text: (§1) In order to assess cell binding by anti-GP130 antibodies of the invention two cell lines were generated. One cell line generated was HEK293 cells stably over-expressing full length (FL) human gp130 (amino acids 1-918 of accession # P40189 with leucine at position 2 changed to valine, a natural variant) along with a luciferase reporter (Stat3-luciferase, Stat3-luc, SA Bioscience, #CLS-6028L). The cells were sorted twice using flow cytometry for high expression of gp130. It is known hereafter as HEK293/Stat3-luc/gp130-2X Sort. IMR-32 cells (human Neuroblastoma, ATCC), were also evaluated for cell binding as these cells express gp130 endogenously and were used for bioassays. The cells used for binding were generated to stably express a luciferase reporter (Stat3-luciferase, Stat3-luc, SA Bioscience, #CLS-6028L), and are referred to hereafter as IMR-32/STAT3-Luc cells.
(§2) For the FACS analysis, 10 nM of the antibodies were used to stain 0.5×10^6 cells/well of each cell type at 4° C. in PBS (without calcium and magnesium) containing 2% FBS for 30 minutes. IMR-32/STAT3-luc cells were incubated with 1 mg/mL mouse IgG for 30 minutes at 4° C. to block Fc receptors prior to adding the antibodies. To test whether the anti-gp130 antibody binding is specific for gp130 on the IMR-32 cells, antibodies were added to IMR-32/Stat3-luc cells with or without being pre-bound to 1000 nM of recombinant protein of the ecto-domain of human gp130 fused to myc-myc-his tag (hgp130.mmh) for 30 minutes at 25° C. […] Cells were fixed using BD CytoFix™ (Becton Dickinson, #554655) and analyzed on an IQue® (Intellicyt®) Flow Cytometer. Unstained and secondary antibody alone controls were also tested for all cell lines. The results were analyzed using ForeCyt® (IntelliCyt®) software to determine the geometric means of fluorescence for viable cells.

[2] = target: T2, human gp130 expressed endogenously on IMR-32/Stat3-luc cells (human, UniProt P40189 23-918); experiment: FACS, 10 nM mAb, IMR-32/Stat3-luc cells, no hGP130.mmh
T2 construct: whole, on cells
T2 sequence (looked up): T1 sequence (looked up)
Text: as §1, §2

[3] = target: T2, human gp130 expressed endogenously on …; experiment: FACS, 10 nM mAb, IMR-32/Stat3-luc cells, competitor 1 uM hGP130.mmh
Text: as §1, §2

MFI - Normalized to Unstained Control [1]: 81 | MFI - Normalized to Unstained Control [2]: 8 | MFI - Normalized to Unstained Control [3]: 8
B1: MAb16659 (antibody, V domains shown)
VH: QVQLVQSGPEVKKPGSSVKVSCKASGGTIDRNEITWVRQAPGQGLEWMGVIIPILGEAHYERKFQGRLTITMDESTSTAYMELSNLRSEDTAVYYCARERAARGYLDYWGQGTLVTVSS
VL: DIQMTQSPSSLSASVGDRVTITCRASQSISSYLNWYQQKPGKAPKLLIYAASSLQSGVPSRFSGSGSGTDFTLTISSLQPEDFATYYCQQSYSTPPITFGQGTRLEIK
notes: Variable domains only

MFI - Normalized to Unstained Control [1]: 75 | MFI - Normalized to Unstained Control [2]: 9 | MFI - Normalized to Unstained Control [3]: 7
B2: MAb16683 (antibody, V domains shown)
VH: QVQLVESGGGLVKPGGSLRLSCAASGFTFSDYYMTWIRQTPGKGLDWVSYISSSGTNKYNADSVKGRFTISRDNAKNSLYLQMNSLRAEDTAVYYCVRDPPWGMDVWGQGTTVTVSS
VL: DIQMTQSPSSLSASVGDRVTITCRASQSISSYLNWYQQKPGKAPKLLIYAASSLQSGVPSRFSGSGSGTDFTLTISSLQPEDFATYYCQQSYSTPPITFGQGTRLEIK
notes: Variable domains only

MFI - Normalized to Unstained Control [1]: 80 | MFI - Normalized to Unstained Control [2]: 6 | MFI - Normalized to Unstained Control [3]: 8
B3: MAb16682 (antibody, V domains shown)
VH: EVQLVESGGGLVQPGGSLRLSCAASGFTFSTYWMNWVRQAPGKGLEWVANIKEDGSEKYYVDSVKGRFTISRDNAKNSLYLQMNSLRAEDTAVYYCAREGFGVVTYIWGQGTMVTVSS
VL: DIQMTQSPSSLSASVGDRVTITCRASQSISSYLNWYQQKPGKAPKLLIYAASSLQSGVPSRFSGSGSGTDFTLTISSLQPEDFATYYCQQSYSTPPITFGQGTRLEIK
notes: Variable domains only

MFI - Normalized to Unstained Control [1]: 107 | MFI - Normalized to Unstained Control [2]: 10 | MFI - Normalized to Unstained Control [3]: 7
B4: MAb16673 (antibody, V domains shown)
VH: EVQLVQSGAEVKKPGESLKISCKGSGYSFTSYWIDWVRQMPGKGLEWMGIIYPDDSDTRYSPSFQGQVTMSVDKSISTAYLQWSSLKASDTAIYYCARHERGIVEAGTDYYYYYGMDVWGQGTTVTVSS
VL: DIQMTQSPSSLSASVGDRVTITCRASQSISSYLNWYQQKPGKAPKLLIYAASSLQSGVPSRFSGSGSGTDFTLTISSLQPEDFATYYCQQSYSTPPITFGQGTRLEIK
notes: Variable domains only

MFI - Normalized to Unstained Control [1]: 91 | MFI - Normalized to Unstained Control [2]: 5 | MFI - Normalized to Unstained Control [3]: 7
B5: MAb16622 (antibody, V domains shown)
VH: EVQLVESGGGVVRPGGSLRLSCTASGFTFDDYGMSWVRQAPGKGLEWVSGINWNGGRTEYADAVKGRFIISRDNAKNSLYLQMNSLRAEDTALYFCARTELRWDYWGQGTLVTVSS
VL: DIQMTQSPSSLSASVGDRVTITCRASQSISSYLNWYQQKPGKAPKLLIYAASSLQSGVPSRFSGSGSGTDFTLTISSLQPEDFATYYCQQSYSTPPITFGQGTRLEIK
notes: Variable domains only

MFI - Normalized to Unstained Control [1]: 55 | MFI - Normalized to Unstained Control [2]: 5 | MFI - Normalized to Unstained Control [3]: 6
B6: MAb16665 (antibody, V domains shown)
VH: QVQLVESGGGVVQPGRSLRLACAASGFTFRSYGMHWVRQAPGKGLEWVAVIWYDGSNKYYTDSVKGRFTISRDNSKNTLYLQMNSLRAEDTAMYYCAIDKWATVTTYLFDYWGQGTLVTVSS
VL: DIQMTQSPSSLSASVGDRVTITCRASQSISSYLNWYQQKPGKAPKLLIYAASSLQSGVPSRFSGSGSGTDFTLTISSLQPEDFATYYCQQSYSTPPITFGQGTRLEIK
notes: Variable domains only

MFI - Normalized to Unstained Control [1]: 96 | MFI - Normalized to Unstained Control [2]: 8 | MFI - Normalized to Unstained Control [3]: 7
B7: MAb16623 (antibody, V domains shown)
VH: EVQLVESGGGLVQPGGSLRLSCAASGLTFSSYEMNWVRQAPGKGLEWVSHISSAGSTKYYADSVKGRFTISRDNAKNSLFLQMNSLRAEDTAIYYCAGYNYAYYYFGVDVWGQGTTVTVSS
VL: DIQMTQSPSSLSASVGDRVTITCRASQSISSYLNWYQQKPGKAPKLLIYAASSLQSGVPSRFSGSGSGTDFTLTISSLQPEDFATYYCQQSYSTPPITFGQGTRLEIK
notes: Variable domains only

MFI - Normalized to Unstained Control [1]: 53 | MFI - Normalized to Unstained Control [2]: 6 | MFI - Normalized to Unstained Control [3]: 5
B8: MAb16669 (antibody, V domains shown)
VH: EVQLVESGGGLVQPGGSLRLSCAASGFTFSSYAMNWVRQAPGKGLEWVSAISGSGDSTYYTDSVKGRFTISRDNSKNTLYLQMNTLRAEDTAVYYCAKEEIVMLVGATPGWFDPWGQGTLVTVSS
VL: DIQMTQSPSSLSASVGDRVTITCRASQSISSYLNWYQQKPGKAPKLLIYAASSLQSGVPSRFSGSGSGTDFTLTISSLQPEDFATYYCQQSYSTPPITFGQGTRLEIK
notes: Variable domains only

MFI - Normalized to Unstained Control [1]: 121 | MFI - Normalized to Unstained Control [2]: 9 | MFI - Normalized to Unstained Control [3]: 7
B9: MAb16637 (antibody, V domains shown)
VH: QVQLVQSGAEVKKPGASVKVSCKASGYTFTSLGISWVRQAPGQGLEWMGWISAYSGNRDYAQKFQGRVTMTTDTSTSTAYMELRSLRSDDTAVYYCARSLRFDYWGQGTLVTVSS
VL: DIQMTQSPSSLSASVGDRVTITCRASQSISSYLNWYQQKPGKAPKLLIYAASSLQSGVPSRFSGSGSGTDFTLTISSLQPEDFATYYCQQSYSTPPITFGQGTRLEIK
notes: Variable domains only

MFI - Normalized to Unstained Control [1]: 45 | MFI - Normalized to Unstained Control [2]: 7 | MFI - Normalized to Unstained Control [3]: 8
B10: MAb16664 (antibody, V domains shown)
VH: QVQLVQSGTEVKKPGSSVKVSCKASGGTFSTYPINWVRQAPGQGLEWMGGIIPIFGTASYAQKFQGRVAITTDESTSTAYMELNSLRSEDTAVYYCARERPNWGSNDYWGQGTLVTVSS
VL: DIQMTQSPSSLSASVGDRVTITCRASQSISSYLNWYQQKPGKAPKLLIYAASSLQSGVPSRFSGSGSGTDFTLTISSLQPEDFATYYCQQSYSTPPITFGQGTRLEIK
notes: Variable domains only

MFI - Normalized to Unstained Control [1]: 105 | MFI - Normalized to Unstained Control [2]: 7 | MFI - Normalized to Unstained Control [3]: 8
B11: MAb16618 (antibody, V domains shown)
VH: QVQLQESGPGLVKPSETLSLTCTVSGGSISNYYWTWIRQPPGKGLEWIGHISNSGTTNYNPSLKSRVTISVDTSKNQFSLKLTSVTAADTAVYYCARLPLGIAAVDTDYYYYFGMDVWGQGTTVTVSS
VL: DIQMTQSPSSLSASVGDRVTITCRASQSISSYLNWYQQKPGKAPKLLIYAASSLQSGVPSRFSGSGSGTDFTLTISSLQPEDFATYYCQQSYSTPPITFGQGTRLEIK
notes: Variable domains only

MFI - Normalized to Unstained Control [1]: 74 | MFI - Normalized to Unstained Control [2]: 9 | MFI - Normalized to Unstained Control [3]: 8
B12: MAb16676 (antibody, V domains shown)
VH: QVQLVQSGAEVMKPGASVKVSCRASGYTFSSYDINWVRQAPGQGLEWMGWISTATGNTNYPQKVQGRVTMTTDTSTNTAYMELRSLRSDDTAVYYCTREGNSKGWLDPWGQGTLVTVSS
VL: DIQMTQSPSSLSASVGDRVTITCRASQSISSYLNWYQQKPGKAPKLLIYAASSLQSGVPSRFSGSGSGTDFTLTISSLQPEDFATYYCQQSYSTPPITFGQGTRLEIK
notes: Variable domains only

MFI - Normalized to Unstained Control [1]: 92 | MFI - Normalized to Unstained Control [2]: 8 | MFI - Normalized to Unstained Control [3]: 7
B13: MAb16636 (antibody, V domains shown)
VH: QLQLQESGPGLVKPSETLSLICTVSGGSISSNNYYWGWIRQPPGKGLEWIGNLYGSGSTYYNPSLKSRVTISVDTSKNQFSLKLSFVTAADTAVYHCARWDTNGGAFDIWGQGTMVTVSS
VL: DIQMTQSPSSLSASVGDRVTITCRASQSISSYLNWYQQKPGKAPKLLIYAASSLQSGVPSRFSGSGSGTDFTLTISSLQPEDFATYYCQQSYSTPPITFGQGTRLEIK
notes: Variable domains only

MFI - Normalized to Unstained Control [1]: 94 | MFI - Normalized to Unstained Control [2]: 7 | MFI - Normalized to Unstained Control [3]: 6
B14: MAb16614 (antibody, V domains shown)
VH: QVQLVESGGGVVQPGGSLRLSCAASGFTFSTYDIHWVRQAPGKGLEWVAVISFDGSNRNYGDSVKGRFTISRDNSDNTLFLEMNNLRFEDTAVYYCAKEGYGVDFQHWGQGTLVTVSS
VL: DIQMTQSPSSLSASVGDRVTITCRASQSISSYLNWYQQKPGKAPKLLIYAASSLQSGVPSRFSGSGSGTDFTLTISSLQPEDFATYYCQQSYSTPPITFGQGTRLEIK
notes: Variable domains only

MFI - Normalized to Unstained Control [1]: 132 | MFI - Normalized to Unstained Control [2]: 12 | MFI - Normalized to Unstained Control [3]: 7
B15: MAb16656 (antibody, V domains shown)
VH: EVQLVESGGGLVQPGRSLRLSCAASGFTLDDFAMHWVRQAPGKGLEWVSGISWNSGNIGYADSVKGRFTISRDNARNSLYLQMNSLRAEDTALYYCTSGYYLYYAMDVWGQGTTVTVSS
VL: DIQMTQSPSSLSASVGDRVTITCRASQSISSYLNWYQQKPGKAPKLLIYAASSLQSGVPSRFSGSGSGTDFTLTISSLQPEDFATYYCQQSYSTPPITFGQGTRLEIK
notes: Variable domains only

MFI - Normalized to Unstained Control [1]: 49 | MFI - Normalized to Unstained Control [2]: 5 | MFI - Normalized to Unstained Control [3]: 6
B16: MAb16662 (antibody, V domains shown)
VH: EVQLVESGGGLVQPGGSLRLSCTASGFTFSNYAIFWVRQAPGKGLEYVSGISNNGVTKYYADSVRDRFTISRDNSRNTVSIQMDSLRTEDMAVYYCARENWGSDDGFDIWGQGTMVTVSS
VL: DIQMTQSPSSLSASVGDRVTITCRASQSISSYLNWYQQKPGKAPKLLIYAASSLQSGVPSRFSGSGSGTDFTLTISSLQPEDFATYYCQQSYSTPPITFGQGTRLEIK
notes: Variable domains only
